Test results reported in patent US20090155843A1 (ANAPHORE, published 2009).

B1: TN3-2-B1-c22-11 (designed binder)
chain: ALQTVCLKGTKVHMKCFLAFTQTKTFHEASEDCISRGGTLSTPQTGSENDALYEYLRQSVGNEAEIWLGLNKRWSRYFWVDMTGTRIAYKNWERPEDAQPDPSNWENCAVLSGAANGKWFGKRCRDQLPYICQFGIV
notes: Monomeric tetranectin CTLD clone
B2: TN3-2-B1-c22-13 (designed binder)
chain: ALQTVCLKGTKVHMKCFLAFTQTKTFHEASEDCISRGGTLSTPQTGSENDALYEYLRQSVGNEAEIWLGLNKRWSRYFWVDMTGTRIAYKNWERLRDSQPDPSNWENCAVLSGAANGKWFGKRCRDQLPYICQFGIV
notes: as for B1
B3: TN3-2-B1-c22-8 (designed binder)
chain: ALQTVCLKGTKVHMKCFLAFTQTKTFHEASEDCISRGGTLSTPQTGSENDALYEYLRQSVGNEAEIWLGLNKRWSRYFWVDMTGTRIAYKNWARTQDAQPDPSNWENCAVLSGAANGKWFGKRCRDQLPYICQFGIV
notes: as for B1
B4: TN3-2-B1-c22-12 (designed binder)
chain: ALQTVCLKGTKVHMKCFLAFTQTKTFHEASEDCISRGGTLSTPQTGSENDALYEYLRQSVGNEAEIWLGLNKRWSRYFWVDMTGTRIAYKNWSRQEDAQPDPSNWENCAVLSGAANGKWFGKRCRDQLPYICQFGIV
notes: as for B1
B5: TN3-2-B1-c22-4 (designed binder)
chain: ALQTVCLKGTKVHMKCFLAFTQTKTFHEASEDCISRGGTLSTPQTGSENDALYEYLRQSVGNEAEIWLGLNKRWSRYFWVDMTGTRIAYKNWALPQHASPSPSNWENCAVLSGAANGKWFGKRCRDQLPYICQFGIV
notes: as for B1
B6: TN3-2-B1-C22-7 (designed binder)
chain: ALQTVCLKGTKVHMKCFLAFTQTKTFHEASEDCISRGGTLSTPQTGSENDALYEYLRQSVGNEAEIWLGLNKRWSRYFWVDMTGTRIAYKNWGRKEDAQPDPSNWENCAVLSGAANGKWFGKRCRDQLPYICQFGIV
notes: Monomeric tetranectin CTLD clone; also called TN3-B1-C22-7; monomeric form of TN2B1C22-7
B7: TN3-2-B1-c22-9 (designed binder)
chain: ALQTVCLKGTKVHMKCFLAFTQTKTFHEASEDCISRGGTLSTPQTGSENDALYEYLRQSVGNEAEIWLGLNKRWSRYFWVDMTGTRIAYKNWERNRDAQPDPSNWENCAVLSGAANGKWFGKRCRDQLPYICQFGIV
notes: as for B1
B8: TN3-2-B1-c22-15 (designed binder)
chain: ALQTVCLKGTKVHMKCFLAFTQTKTFHEASEDCISRGGTLSTPQTGSENDALYEYLRQSVGNEAEIWLGLNKRWSRYFWVDMTGTRIAYKNWQLPQHADPAPSNWENCAVLSGAANGKWFGKRCRDQLPYICQFGIV
notes: as for B1
B9: TN3-2-B1-c22-16 (designed binder)
chain: ALQTVCLKGTKVHMKCFLAFTQTKTFHEASEDCISRGGTLSTPQTGSENDALYEYLRQSVGNEAEIWLGLNKRWSRYFWVDMTGTRIAYKNWLLPQHEQPEPSNWENCAVLSGAANGKWFGKRCRDQLPYICQFGIV
notes: as for B1
B10: TN3-2-B1-c22-2 (designed binder)
chain: ALQTVCLKGTKVHMKCFLAFTQTKTFHEASEDCISRGGTLSTPQTGSENDALYEYLRQSVGNEAEIWLGLNKRWSRYFWVDMTGTRIAYKNWLLPQHANPNPSNWENCAVLSGAANGKWFGKRCRDQLPYICQFGIV
notes: as for B1
B11: TN3-2-B1-c22-3 (designed binder)
chain: ALQTVCLKGTKVHMKCFLAFTQTKTFHEASEDCISRGGTLSTPQTGSENDALYEYLRQSVGNEAEIWLGLNKRWSRYFWVDMTGTRIAYKNWKLPQHAHPEPSNWENCAVLSGAANGKWFGKRCRDQLPYICQFGIV
notes: as for B1
B12: TN3-2-B1-c22-1 (designed binder)
chain: ALQTVCLKGTKVHMKCFLAFTQTKTFHEASEDCISRGGTLSTPQTGSENDALYEYLRQSVGNEAEIWLGLNKRWSRYFWVDMTGTRIAYKNWKLPQHANPSPSNWENCAVLSGAANGKWFGKRCRDQLPYICQFGIV
notes: as for B1
B13: TN3-2-B1-c22-10 (designed binder)
chain: ALQTVCLKGTKVHMKCFLAFTQTKTFHEASEDCISRGGTLSTPQTGSENDALYEYLRQSVGNEAEIWLGLNKRWSRYFWVDMTGTRIAYKNWVRQRDAQPDPSNWENCAVLSGAANGKWFGKRCRDQLPYICQFGIV
notes: as for B1
B14: TN3-2-B1-C20 (designed binder)
chain: ALQTVCLKGTKVHMKCFLAFTQTKTFHEASEDCISRGGTLSTPQTGSENDALYEYLRQSVGNEAEIWLGLNKRWSRYFWVDMTGTRIAYKNWERRQDAQPDPSNWENCAVLSGAANGKWFGKRCRDQLPYICQFGIV
notes: as for B1
B15: TN3-2-B1-c22-6 (designed binder)
chain: ALQTVCLKGTKVHMKCFLAFTQTKTFHEASEDCISRGGTLSTPQTGSENDALYEYLRQSVGNEAEIWLGLNKRWSRYFWVDMTGTRIAYKNWMLEKDAQPDPSNWENCAVLSGAANGKWFGKRCRDQLPYICQFGIV
notes: as for B1
B16: TN3-2-B1-c22-7 (designed binder)
chain: ALQTVCLKGTKVHMKCFLAFTQTKTFHEASEDCISRGGTLSTPQTGSENDALYEYLRQSVGNEAEIWLGLNKRWSRYFWVDMTGTRIAYKNWGRKEDAQPDPSNWENCAVLSGAANGKWFGKRCRDQLPYICQFGIV
notes: as for B1
B17: TN3-2-B1-C31 (designed binder)
chain: ALQTVCLKGTKVHMKCFLAFTQTKTFHEASEDCISRGGTLSTPQTGSENDALYEYLRQSVGNEAEIWLGLNKRWSRYFWVDMTGTRIAYKNWEHSSDAQPDPSNWENCAVLSGAANGKWFGKRCRDQLPYICQFGIV
notes: as for B1
B18: TN3-2-B1-C19 (designed binder)
chain: ALQTVCLKGTKVHMKCFLAFTQTKTFHEASEDCISRGGTLSTPQTGSENDALYEYLRQSVGNEAEIWLGLNKRWSRYFWVDMTGTRIAYKNWELIRDAQPDPANWENCAVLSGAANGKWFGKRCRDQLPYICQFGIV
notes: as for B1
B19: TN3-2-B1-C53 (designed binder)
chain: ALQTVCLKGTKVHMKCFLAFTQTKTFHEASEDCISRGGTLSTPQTGSENDALYEYLRQSVGNEAEIWLGLNKRWSRYFWVDMTGTRIAYKNWERLADAQPDPFNWENCAVLSGAANGKWFGKRCRDQLPYICQFGIV
notes: as for B1
B20: TN3-2-B1-C22 (designed binder)
chain: ALQTVCLKGTKVHMKCFLAFTQTKTFHEASEDCISRGGTLSTPQTGSENDALYEYLRQSVGNEAEIWLGLNKRWSRYFWVDMTGTRIAYKNWELPQHAQPDPSNWENCAVLSGAANGKWFGKRCRDQLPYICQFGIV
notes: Monomeric tetranectin CTLD clone; also called monomeric form of TN2B1C22
B21: TN3-2-B1-C24 (designed binder)
chain: ALQTVCLKGTKVHMKCFLAFTQTKTFHEASEDCISRGGTLSTPQTGSENDALYEYLRQSVGNEAEIWLGLNKRWSRYFWVDMTGTRIAYKNWERTTDAQPDPSNWENCAVLSGAANGKWFGKRCRDQLPYICQFGIV
notes: as for B1
B22: TN3-2-B1-C1 (designed binder)
chain: ALQTVCLKGTKVHMKCFLAFTQTKTFHEASEDCISRGGTLSTPQTGSENDALYEYLRQSVGNEAEIWLGLNKRWSRYFWVDMTGTRIAYKNWELLSDAQPDPVNWENCAVLSGAANGKWFGKRCRDQLPYICQFGIV
notes: as for B1
B23: TN3-2-B1-C29 (designed binder)
chain: ALQTVCLKGTKVHMKCFLAFTQTKTFHEASEDCISRGGTLSTPQTGSENDALYEYLRQSVGNEAEIWLGLNKRWSRYFWVDMTGTRIAYKNWEGIEWAQPDPTNFENCAVLSGAANGKWFGKRCRDQLPYICQFGIV
notes: as for B1
B24: TN3-2-B1-c7 (designed binder)
chain: ALQTVCLKGTKVHMKCFLAFTQTKTFHEASEDCISRGGTLSTPQTGSENDALYEYLRQSVGNEAEIWLGLNKRWSRYFWVDMTGTRIAYKNWELASDAQPDPANWENCAVLSGAANGKWFGKRCRDQLPYICQFGIV
notes: as for B1

These binders were tested against T1, human tumor necrosis factor (TNF) (human, UniProt P01375 77-233) (assay: phage display selection and maturation).
T1 construct: The assays use 'human TNF'; The target of the phage display selection is printed only as 'TNF'; also called TNF-alpha
T1 sequence (P01375 77-233 limits assumed): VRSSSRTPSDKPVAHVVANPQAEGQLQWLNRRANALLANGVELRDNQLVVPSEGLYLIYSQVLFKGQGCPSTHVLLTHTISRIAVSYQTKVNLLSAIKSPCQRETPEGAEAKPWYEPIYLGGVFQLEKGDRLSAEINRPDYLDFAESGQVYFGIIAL
B1: binds. B2: binds. B3: binds. B4: binds. B5: binds. B6: binds. B7: binds. B8: binds. B9: binds. B10: binds. B11: binds. B12: binds. B13: binds. B14: binds. B15: binds. B16: binds. B17: binds. B18: binds. B19: binds. B20: binds. B21: binds. B22: binds. B23: binds. B24: binds.
